Data from paper PMC12445016 (Nature, 2025).
One block for each molecule: values may come before it.

Columns and labels:
[1] = target: GRK5-phosphorylated ACKR3·CXCL12_(LRHQ) (UniProt P25106); experiment: pull-down
[2] = target: T1, biotinylated Arr3* loaded with inositol hexakisphosphate (IP6) (bovine, UniProt P32120, biotin (EZ-link sulfo-NHS-Biotin; sites not stated)); experiment: ELISA
T1 chain: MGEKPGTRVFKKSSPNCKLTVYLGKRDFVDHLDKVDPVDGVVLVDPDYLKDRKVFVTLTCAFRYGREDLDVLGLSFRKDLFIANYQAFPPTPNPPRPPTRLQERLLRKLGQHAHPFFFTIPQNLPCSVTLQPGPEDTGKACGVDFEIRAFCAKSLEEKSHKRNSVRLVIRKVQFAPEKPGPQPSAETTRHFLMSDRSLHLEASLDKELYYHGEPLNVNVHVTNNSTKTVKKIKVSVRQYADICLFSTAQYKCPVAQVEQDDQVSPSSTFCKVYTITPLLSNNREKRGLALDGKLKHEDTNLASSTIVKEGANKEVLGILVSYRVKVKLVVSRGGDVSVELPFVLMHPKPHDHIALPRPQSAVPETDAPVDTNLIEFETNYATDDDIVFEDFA

[3] = target: T2, preactivated arrestin3 (truncated after residue 392) (bovine, UniProt P32120); experiment: ELISA
T2 chain: T1 chain

- percent more pulled down than by pACKR3 (GRK2) [1]: 30%
Molecule: preactivated arrestin2 (I386A, V387A, F388A mutations in its C-tail) (from UniProt P17870 1-418) (natural protein)

- percent more pulled down than by pACKR3 (GRK2) [1]: 40%
Molecule: preactivated arrestin3 (truncated after residue 392) (from UniProt P32120 1-392) (domain or fragment)

- EC50 [2]: ~10 nM
- IC50 [3]: ~90 nM
B1: Fab7 (antigen binding fragment that recognizes active arrestin2 and arrestin3) (Fab, V domains shown)
VH: EVQLVESGGGLVQPGGSLRLSCAASGFNVSSSYIHWVRQAPGKGLEWVASISSYYGYTYYADSVKGRFTISADTSKNTAYLQMNSLRAEDTAVYYCARKSMYHRGWGWLSWVYGAMDYWGQGTLVTVSS
VL: DIQMTQSPSSLSASVGDRVTITCRASQSVSSAVAWYQQKPGKAPKLLIYSASSLYSGVPSRFSGSRSGTDFTLTISSLQPEDFATYYCQQSYYYPITFGQGTKVEIK
